Measurements reported in patent US6740496B1, “Determination of biologically active forms of proteolytic enzymes” (Synapse B.V., priority 1999, dated 2004).

Columns and labels:
Type in all cases: biochemical
human thrombin [1] = biological target: T1, human thrombin (Homo sapiens, UniProt P00734); test: Hydrolysis of OA-AR-AMC by free thrombin (AMC fluorescence); settings: 5.5 μM OA-AR-AMC, 85 nM human thrombin, 25° C., pH 8.0, Michaelis-Menten fit
T1 construct: The formation of thrombin in clotting blood or plasma arises from prothrombin by an enzymatic controlled reaction
Protocol: (§1) The assay was carried out at 25° C. in 96 well Microfluor W “U” bottomed micro titre plates (Dynex, London, UK) in 10 mM HEPES, 5 mM CaCl2, 0.02% sodium azide, pH 8.0). In case of -∘- the vessel contained 5.5 μM OA-AR-AMC (Ala-Arg-AMC coupled to ovalbumin) and 85 nM human thrombin and in case of -∇-5.5 μM OA-AR-AMC and 65 μM human α2M-IIa. The black symbols (-●- and -▾-) were obtained by fitting assuming that the substrate is hydrolysed by thrombin according to Michaelis-Menten kinetics. […] For hydrolysis by α2M-IIa the already derived S0 and Km were found and kcat=0.008 s^−1.

human α2M-IIa [2] = biological target: T2, human α2M-IIa (Homo sapiens, UniProt P00734); test: Hydrolysis of OA-AR-AMC by thrombin inactivated by α2M (AMC fluorescence)
T2 construct: The formation of thrombin in clotting blood or plasma arises from prothrombin by an enzymatic controlled reaction
Protocol: as §1

human thrombin [3] = biological target: T1, human thrombin; test: Amidolytic activity of human thrombin towards OA-S2288 (pNA release, OD 405 nm); settings: Michaelis-Menten fit
Protocol: (§2) The amidolytic activity of human thrombin and human α2M-IIa towards OA-S2288 was measured. The reaction mixtures contained 22 μM OA-S2288, 50 nM thrombin or α2M-IIa and 175 mM NaCl, 50 mM Tris-HCl, 2 mg/ml ovalbumin (pH 7.9).
(§3) In FIG. 2 the amount of free p-nitroanilide (pNA) formed, expressed as milli optical density at 405 nm, is plotted against the time. The reaction temperature was 37° C. The grey curves are the measured data, whereas the black line is obtained by fitting, assuming that product formation occurs according to Michaelis-Menten kinetics.
(§4) Product formation in time can be described as: E.kcat. St/(Km+St), in which St is the substrate concentration in time (i.e. the substrate concentration originally present (S0) minus the formed product or split substrate, and E is the enzyme that splits the substrate, either thrombin or α2M-IIa.

human α2M-IIa [4] = biological target: T2, human α2M-IIa; test: Amidolytic activity of human α2M-IIa towards OA-S2288 (pNA release, OD 405 nm)
Protocol: as §2, §3, §4

| Substance | Km (human thrombin [1]) | kcat (human thrombin [1]) | kcat (human α2M-IIa [2]; 5.5 μM OA-AR-AMC, 65 μM human α2M-IIa, 25° C., pH 8.0, Michaelis-Menten fit) | Km (human α2M-IIa [2]; hydrolysis by α2M-IIa, the already derived S0 and Km) | hydrolysis by thrombin entrapped in α2M (in words) (human α2M-IIa [2]; ovalbumin coupled to Ala-Arg-AMC) | Km (human thrombin [3]; 22 μM OA-S2288, 50 nM thrombin, pH 7.9, 37° C.) | kcat (human thrombin [3]; E is thrombin, 22 μM OA-S2288, 50 nM enzyme, 37° C.) | kcat (human α2M-IIa [4]; E is α2M-IIa, 22 μM OA-S2288, 50 nM enzyme, 37° C., Michaelis-Menten fit) | hydrolysis by α2M-IIa (in words) (human α2M-IIa [4]; ovalbumin coupled to S2288) |
| --- | --- | --- | --- | --- | --- | --- | --- | --- | --- |
| ovalbumin coupled to H-alanyl-L-arginine-7-amido-4-methyl-coumarin [OA-AR-AMC] | 1200 nM | 3.3 s⁻¹ | 0.008 s⁻¹ | 1200 nM | will not be split anymore by thrombin entrapped in the cavity of α2M | – | – | – | – |
| ovalbumin coupled to H-D-isoleucyl-L-prolyl-L-arginine-p-nitroanilide.2HCl [OA-S2288] | – | – | – | – | – | 1470 nM | 0.31 s⁻¹ | 0.002 s⁻¹ | loses its ability to be hydrolysed by α2M-IIa, but not by thrombin |
